Like-named read-outs stand apart in the source and are kept apart here. Marks after values point to notes of the source that are not given here.
Legend:
[1] = tested on: IFN-γ secreting expression; experiment: Neutralization activity of anti-rLZ-8 antibody by biological activity method (IFN-γ secreting expression stimulated by rLZ-8); format: cell-based
Procedure: As a fungal recombinant genetic engineering drug, it is crucial to track generation of antibody of the rLZ-8 for a preclinical evaluation. Blood serum of normal monkeys, Macaca fascicularis, after being continuously administrated, was selected for testing antibody of the rLZ-8 by ELISA and for testing a neutralization activity of anti-rLZ-8 antibody by a biological activity method.
On the 9th-11th days of administrating the drug, three monkeys were tested to have low titer (1:5) of the anti-rLZ-8 antibody; after the 28th day of administrating, the titer of the antibody maintained low, within a range of 1:25 to 1:125. No anti-rLZ-8 antibody was tested from the monkeys of the contrast group. […] Therefore, the inhibition effect of the monkey blood serum was not the property of the competitive neutralizing antibody.

B16-F10 lung metastases = experiment: B16-F10 melanoma lung metastasis model (tail vein injection) in Kunming mice; format: in vivo; settings: for Survival rate when all mice of the negative contrast group were dead: 87th / 95th day after injecting the tumors
From the text: DMEM, fetal bovine serum, PBS, trypsin-EDTA, DMSO, Tris-HCl buffer with pH 7.6 for rinsing, 0.05% trypsin, rLZ-8, and DTIC.
After the mice were put to death, lungs of the dead mice were dissected out and the number of black spots on surfaces of the lungs, formed by an aggregation of metastasis cell, was counted, so as to calculate the inhibition rate of the drug against the growth of the lung metastasis as: inhibition rate=(an average metastasis number of the negative contrast group−an average metastasis number of the drug administrated group)/the average metastasis number of the negative contrast group×100%. A time and the number of the dead mouse in each experiment group were recorded in detail, especially during administrating the drug continuously, until the negative contrast group was completely dead; and then, the survival states of the mice in the experiment groups and the contrast groups were analyzed. A survival rate was calculated according to the number of the dead mice in the other groups when all the mice of the negative contrast group were dead, based on a formula that survival rate=(a total number of the mice−the number of the dead mice)/the total number of the mice.

[2] = Toxicity test of rLZ-8 on SD rats; format: in vivo; set-up: Weight gains, male / Weight gains, female / BUN (blood urea nitrogen) / CHE (cholinesterase) / CRE (creatinine) / TBA (total bile acid) / UA (uric acid) / ALT (alanine aminotransferase) / AST (aspartate aminotransferase): unit not given here; settings: for Weight gains, female: female SD rats; for Weight gains, female / Weight gains, male: 46 days; for Weight gains, male: male SD rats
Procedure: The administration dosages for the rats were calculated based on the administration dosage for the mice; the rats were divided into a contrast group (physiological saline), a low dosage group (15 μl/kg weight), a medium dosage group (30 μl/kg weight) and a high dosage group (60 μl/kg weight). The administration manner was an intraperitoneal injection.
Feeding amount, weight; serology: liver function and kidney function; immunity: thymus index and spleen index; serum complements IgM, IgG, C3 and C4; pathology examination: heart, liver, spleen, lung, kidney, pancreas, thymus, gonad etc.

B16F10 orthotopic tumor = settings: for Mortality rate (administration for 28 days) / Mortality rate (administration for 56 days): dead mice/animal number
Procedure: The mice were transplanted with a melanoma cells line B16-F10.
The mice melanoma cells B16-F10 were cultured in the DMEM containing 10% fetal bovine serum, at 37° C. in the CO2 thermostat incubator. 200 μl of B16-F10 cell suspension (containing 1×10^7 cells) was slowly subcutaneously injected into a dorsal-ventral side of the mouse through 1 ml syringe, so as to establish a model of mice transplanted with tumors. […] The rLZ-8 was injected once per day; the DTIC was continuously tail-intravenously injected for 5 days and injected for a second time after 3 weeks. During the experiment, living states of the mice were observed; the mice were weighed once every 7 days; blood samples were taken from tail veins of the mice every 2 weeks; volumes of the tumors, subcutaneously injected into the mice, were measured every 2 days; for each group, the tumors were dissected at an end of the experiment and weighed on the balance, with weights recorded. According to a formula that a tumor growth inhibition rate=(an average weight of the tumors of the physiological saline group−an average weight of the tumors of the drug administrated groups)/the average weight of the tumors of the physiological saline group, the inhibition rate of the rLZ-8 upon the growth of the orthotopic tumor was calculated.

[3] = tested on: human gastric cancer cells (SGC-7901); settings: cited from earlier work
[4] = tested on: human lung carcinoma cells (A549); settings: cited from earlier work
[5] = culture medium with anti-rLZ-8 antibody positive (1:125) monkey blood serum diluted 10 times
[6] = medium dosage 246 μg/kg, 56 days
[7] = high dosage 60 μl/kg weight i.p.
[8] = low dosage 15 μl/kg weight i.p.
[9] = medium dosage 30 μl/kg weight i.p.
[10] = medium dosage 246 μg/kg, 28 days

B1: rLZ-8: recombinant ganoderma immunoregulatory protein (LZ-8), fungal immunoregulatory protein obtained by gene engineering (protein, UniProt P14945 2-111, looked up)
Immunomodulatory protein Ling …: SDTALIFRLAWDVKKLSFDYTPNWGRGNPNNFIDTVTFPKVLTDKAYTYRVAVSGRNLGVKPSYAVESDGSQKVNFLEYNSGYGIADTNTIQVFVVDPDTNNDFIIAQWN
Maximum expression value (Emax) of value A [1, 5]: 0.78±0.09
Slope of the curve [1, 5]: 0.77±0.20
Generation of neutralizing antibody ([1]; monkeys, continuous administration): does not generate the neutralizing antibody
Half maximal inhibitory concentration IC50 ([1]; with antibody positive monkey blood serum versus without): increased
Survival rate when all mice of the negative contrast group were dead (B16-F10 lung metastases; high dosage 492 μg/kg): 10%
Tumor metastases inhibition rate (B16-F10 lung metastases; high dosage 492 μg/kg, 28 days): 71.17±2.43%
Tumor metastases inhibition rate (B16-F10 lung metastases; high dosage 492 μg/kg, 56 days): 89.78 ± 2.77 %
Survival rate when all mice of the negative contrast group were dead (B16-F10 lung metastases; low dosage 123 μg/kg): 25%
Tumor metastases inhibition rate (B16-F10 lung metastases; low dosage 123 μg/kg, 28 days): 62.13±1.88%
Tumor metastases inhibition rate (B16-F10 lung metastases; low dosage 123 μg/kg, 56 days): 66.18 ± 1.79 %
Survival rate when all mice of the negative contrast group were dead (B16-F10 lung metastases; medium dosage 246 μg/kg): 30%
Tumor metastases inhibition rate (B16-F10 lung metastases; [6]): 84.31 ± 3.12 %
Impact on liver function and kidney function ([2]; SD rats, all dosage groups): no obvious adverse impact on the liver function and the kidney function
Pathology examination of tested organs ([2]; compared with the organs of the contrast group): no obvious morphological change
Weight gains, female [2, 7]: 133.37 ± 15.29
Weight gains, female [2, 8]: 140.00 ± 23.48
Weight gains, female [2, 9]: 124.08 ± 14.17
ALB (albumin) [2, 7]: 34.77 ± 1.44
ALP (alkaline phosphatase) [2, 7]: 218.50 ± 69.98
ALT (alanine aminotransferase) [2, 7]: 30.75 ± 2.42
AST (aspartate aminotransferase) [2, 7]: 128.58 ± 18.74
BUN (blood urea nitrogen) [2, 7]: 7.24 ± 0.89
C3 [2, 7]: 0.428 ± 0.082 g/L
C4 [2, 7]: 0.352 ± 0.016 g/L
CHE (cholinesterase) [2, 7]: 456.17 ± 309.59
CRE (creatinine) [2, 7]: 24.22 ± 2.55
IgG [2, 7]: 0.124 ± 0.081 g/L
IgM [2, 7]: 0.236 ± 0.076 g/L
Spleen index (spleen weight/weight × 100) [2, 7]: 0.19 ± 0.02
TBA (total bile acid) [2, 7]: 37.30 ± 17.63
TP (total protein) [2, 7]: 63.23 ± 2.88
Thymus index (thymus weight/weight × 100) [2, 7]: 0.17 ± 0.03
UA (uric acid) [2, 7]: 164.50 ± 28.94
ALB (albumin) [2, 8]: 37.54 ± 1.62
ALP (alkaline phosphatase) [2, 8]: 243.50 ± 103.54
ALT (alanine aminotransferase) [2, 8]: 35.50 ± 4.93
AST (aspartate aminotransferase) [2, 8]: 175.00 ± 34.96
BUN (blood urea nitrogen) [2, 8]: 7.54 ± 0.47
C3 [2, 8]: 0.449 ± 0.097 g/L
C4 [2, 8]: 0.397 ± 0.021 g/L
CHE (cholinesterase) [2, 8]: 474.17 ± 305.10
CRE (creatinine) [2, 8]: 24.97 ± 1.89
IgG [2, 8]: 0.146 ± 0.021 g/L
IgM [2, 8]: 0.220 ± 0.080 g/L
Spleen index (spleen weight/weight × 100) [2, 8]: 0.19 ± 0.03
TBA (total bile acid) [2, 8]: 30.13 ± 16.29
TP (total protein) [2, 8]: 67.58 ± 3.34
Thymus index (thymus weight/weight × 100) [2, 8]: 0.15 ± 0.03
UA (uric acid) [2, 8]: 174.42 ± 46.65
Weight gains, male [2, 7]: 221.92 ± 21.84
Weight gains, male [2, 8]: 215.25 ± 17.82
Weight gains, male [2, 9]: 218.67 ± 10.89
ALB (albumin) [2, 9]: 36.57 ± 2.20
ALP (alkaline phosphatase) [2, 9]: 242.83 ± 80.94
ALT (alanine aminotransferase) [2, 9]: 34.42 ± 4.50
AST (aspartate aminotransferase) [2, 9]: 169.08 ± 30.83
BUN (blood urea nitrogen) [2, 9]: 7.36 ± 0.97
C3 [2, 9]: 0.457 ± 0.088 g/L
C4 [2, 9]: 0.412 ± 0.017 g/L
CHE (cholinesterase) [2, 9]: 487.17 ± 303.02
CRE (creatinine) [2, 9]: 24.26 ± 3.55
IgG [2, 9]: 0.121 ± 0.021 g/L
IgM [2, 9]: 0.228 ± 0.084 g/L
Spleen index (spleen weight/weight × 100) [2, 9]: 0.18 ± 0.02
TBA (total bile acid) [2, 9]: 38.25 ± 18.15
TP (total protein) [2, 9]: 66.58 ± 4.77
Thymus index (thymus weight/weight × 100) [2, 9]: 0.12 ± 0.02
UA (uric acid) [2, 9]: 186.83 ± 45.67
Increase of tumor inhibition rate between administration for 28 days and for 56 days (B16F10 orthotopic tumor; each rLZ-8 dosage group): around 15%
Tumor weight (B16F10 orthotopic tumor; high dosage 492 μg/kg tail i.v. once per day, 28 days): 0.14 ± 0.04 g
Tumor growth inhibition rate (B16F10 orthotopic tumor; high dosage 492 μg/kg, 28 days): 88.49 ± 0.51 %
Tumor volume (B16F10 orthotopic tumor; high dosage 492 μg/kg, 28 days): 0.11 ± 0.03** mm^3
Tumor growth inhibition rate (B16F10 orthotopic tumor; high dosage 492 μg/kg, 56 days): 95.66±1.77%
Tumor volume (B16F10 orthotopic tumor; high dosage 492 μg/kg, 56 days): 0.13 ± 0.09**^## mm^3
Tumor weight (B16F10 orthotopic tumor; high dosage 492 μg/kg, 56 days): 0.15 ± 0.07 g
Mortality rate (administration for 28 days) (B16F10 orthotopic tumor; high dosage 492 μg/kg): 0/10
Mortality rate (administration for 56 days) (B16F10 orthotopic tumor; high dosage 492 μg/kg): 0/10
Tumor weight (B16F10 orthotopic tumor; low dosage 123 μg/kg tail i.v. once per day, 28 days): 0.6 ± 0.21 g
Tumor growth inhibition rate (B16F10 orthotopic tumor; low dosage 123 μg/kg, 28 days): 51.81 ± 0.41 %
Tumor volume (B16F10 orthotopic tumor; low dosage 123 μg/kg, 28 days): 0.5 ± 0.14**^## mm^3
Tumor growth inhibition rate (B16F10 orthotopic tumor; low dosage 123 μg/kg, 56 days): 76.76 ± 0.53 %
Tumor volume (B16F10 orthotopic tumor; low dosage 123 μg/kg, 56 days): 0.65 ± 0.24**^# mm^3
Tumor weight (B16F10 orthotopic tumor; low dosage 123 μg/kg, 56 days): 0.79 ± 0.31**^ g
Mortality rate (administration for 28 days) (B16F10 orthotopic tumor; low dosage 123 μg/kg): 0/10
Mortality rate (administration for 56 days) (B16F10 orthotopic tumor; low dosage 123 μg/kg): 0/10
Tumor weight (B16F10 orthotopic tumor; medium dosage 246 μg/kg tail i.v. once per day, 28 days): 0.43 ± 0.17 g
Tumor growth inhibition rate (B16F10 orthotopic tumor; [10]): 65.00 ± 0.77 %
Tumor volume (B16F10 orthotopic tumor; [10]): 0.36 ± 0.14**^## mm^3
Tumor growth inhibition rate (B16F10 orthotopic tumor; [6]): 80.10 ± 1.01 %
Tumor volume (B16F10 orthotopic tumor; [6]): 0.56 ± 0.18**^## mm^3
Tumor weight (B16F10 orthotopic tumor; [6]): 0.68 ± 0.19 g
Mortality rate (administration for 28 days) (B16F10 orthotopic tumor; medium dosage 246 μg/kg): 0/10
Mortality rate (administration for 56 days) (B16F10 orthotopic tumor; medium dosage 246 μg/kg): 0/10
Body leukocyte number (B16F10 orthotopic tumor; tumor-bearing mice, tail vein blood, anti-tumor treatment experiment (28/56 days)): small impact on the body leukocyte number
Killing of cells in vitro [3]: effectively kills
Killing of cells in vitro [4]: effectively kills

Reference: patent US20160129077A1, “Use of recombinant ganoderma immunoregulatory protein (rLZ-8) in preparation of drug for treating melanoma” (priority 2013, published 2016)
